Laboratory results reported in paper PMC4631838, “Molecular architecture of the yeast Mediator complex” (eLife, 2015).

T1: Med5 (Nut1), Mediator Tail module subunit (S. cerevisiae, UniProt P53114 1-1132)
T1 construct: Med5 (Nut1), S. cerevisiae, endogenous; source: endogenous, S. cerevisiae CB010 double-tagged strain; within the purified native holoenzyme
T1 sequence (looked up): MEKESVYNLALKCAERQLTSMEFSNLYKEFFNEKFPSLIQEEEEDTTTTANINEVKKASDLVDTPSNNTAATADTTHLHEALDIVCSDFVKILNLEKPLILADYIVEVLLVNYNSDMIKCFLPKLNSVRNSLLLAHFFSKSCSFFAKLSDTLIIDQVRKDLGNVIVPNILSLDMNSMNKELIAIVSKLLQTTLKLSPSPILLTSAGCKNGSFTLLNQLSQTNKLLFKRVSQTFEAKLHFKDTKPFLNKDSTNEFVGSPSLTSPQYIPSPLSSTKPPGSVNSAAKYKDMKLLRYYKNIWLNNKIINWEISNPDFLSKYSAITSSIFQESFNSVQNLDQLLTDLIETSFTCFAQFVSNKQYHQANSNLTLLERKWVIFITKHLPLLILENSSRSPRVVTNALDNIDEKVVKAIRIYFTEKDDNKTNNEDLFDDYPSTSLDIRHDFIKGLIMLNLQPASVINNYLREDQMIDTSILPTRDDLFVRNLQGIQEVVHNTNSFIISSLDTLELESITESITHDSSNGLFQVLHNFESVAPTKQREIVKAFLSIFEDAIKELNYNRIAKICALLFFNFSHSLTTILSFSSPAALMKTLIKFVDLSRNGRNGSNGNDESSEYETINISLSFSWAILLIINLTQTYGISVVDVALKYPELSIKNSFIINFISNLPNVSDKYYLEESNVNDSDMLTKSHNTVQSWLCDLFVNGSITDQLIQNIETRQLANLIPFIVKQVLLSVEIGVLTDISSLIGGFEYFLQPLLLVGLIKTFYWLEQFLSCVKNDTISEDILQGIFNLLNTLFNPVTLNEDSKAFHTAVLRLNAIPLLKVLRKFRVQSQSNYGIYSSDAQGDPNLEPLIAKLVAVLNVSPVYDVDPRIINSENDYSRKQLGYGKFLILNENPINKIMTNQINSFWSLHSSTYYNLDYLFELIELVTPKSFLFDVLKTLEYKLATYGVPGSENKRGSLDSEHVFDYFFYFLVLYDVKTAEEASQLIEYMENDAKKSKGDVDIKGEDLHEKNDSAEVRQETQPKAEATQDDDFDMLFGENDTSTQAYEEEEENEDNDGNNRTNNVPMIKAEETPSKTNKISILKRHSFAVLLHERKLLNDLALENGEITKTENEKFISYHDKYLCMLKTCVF

T2: Med14 (Rgr1), Mediator subunit (S. cerevisiae, UniProt P19263 1-1082)
T2 construct: Med14 (Rgr1), S. cerevisiae, endogenous, residues 1-1082 spoken of; source: endogenous, S. cerevisiae CB010 double-tagged strain; within the purified native holoenzyme
T2 sequence (looked up): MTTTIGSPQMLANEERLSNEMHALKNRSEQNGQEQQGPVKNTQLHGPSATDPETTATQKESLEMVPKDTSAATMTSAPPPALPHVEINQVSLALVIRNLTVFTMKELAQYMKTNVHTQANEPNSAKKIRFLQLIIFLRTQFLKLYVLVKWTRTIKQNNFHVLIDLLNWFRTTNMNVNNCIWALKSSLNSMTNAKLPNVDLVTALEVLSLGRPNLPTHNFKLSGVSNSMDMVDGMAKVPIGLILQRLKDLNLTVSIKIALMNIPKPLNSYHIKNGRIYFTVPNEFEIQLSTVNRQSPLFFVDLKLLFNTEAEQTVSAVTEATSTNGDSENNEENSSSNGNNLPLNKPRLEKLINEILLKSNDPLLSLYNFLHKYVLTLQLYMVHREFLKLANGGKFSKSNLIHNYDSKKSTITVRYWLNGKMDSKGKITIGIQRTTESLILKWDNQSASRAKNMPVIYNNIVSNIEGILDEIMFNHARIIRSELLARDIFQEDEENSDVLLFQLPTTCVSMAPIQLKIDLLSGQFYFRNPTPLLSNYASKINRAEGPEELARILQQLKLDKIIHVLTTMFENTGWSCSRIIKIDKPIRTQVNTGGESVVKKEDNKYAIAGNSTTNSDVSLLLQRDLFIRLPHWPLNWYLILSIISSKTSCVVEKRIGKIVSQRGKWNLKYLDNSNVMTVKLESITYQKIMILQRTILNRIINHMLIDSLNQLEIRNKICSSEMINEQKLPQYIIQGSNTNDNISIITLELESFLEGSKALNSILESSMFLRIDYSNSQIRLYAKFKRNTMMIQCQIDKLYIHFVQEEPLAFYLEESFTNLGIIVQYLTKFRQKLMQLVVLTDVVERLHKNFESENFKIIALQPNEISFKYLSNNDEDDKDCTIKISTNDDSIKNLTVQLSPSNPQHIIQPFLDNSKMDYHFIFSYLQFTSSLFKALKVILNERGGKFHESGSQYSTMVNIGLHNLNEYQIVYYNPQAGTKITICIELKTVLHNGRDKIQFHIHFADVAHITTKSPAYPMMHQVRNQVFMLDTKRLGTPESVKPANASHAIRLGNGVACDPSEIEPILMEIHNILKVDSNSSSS

T3: Med1, Mediator Middle module subunit (S. cerevisiae, UniProt Q12321 1-566)
T3 construct: Med1, S. cerevisiae, endogenous; source: endogenous, S. cerevisiae CB010 double-tagged strain; within the purified native holoenzyme
T3 sequence (looked up): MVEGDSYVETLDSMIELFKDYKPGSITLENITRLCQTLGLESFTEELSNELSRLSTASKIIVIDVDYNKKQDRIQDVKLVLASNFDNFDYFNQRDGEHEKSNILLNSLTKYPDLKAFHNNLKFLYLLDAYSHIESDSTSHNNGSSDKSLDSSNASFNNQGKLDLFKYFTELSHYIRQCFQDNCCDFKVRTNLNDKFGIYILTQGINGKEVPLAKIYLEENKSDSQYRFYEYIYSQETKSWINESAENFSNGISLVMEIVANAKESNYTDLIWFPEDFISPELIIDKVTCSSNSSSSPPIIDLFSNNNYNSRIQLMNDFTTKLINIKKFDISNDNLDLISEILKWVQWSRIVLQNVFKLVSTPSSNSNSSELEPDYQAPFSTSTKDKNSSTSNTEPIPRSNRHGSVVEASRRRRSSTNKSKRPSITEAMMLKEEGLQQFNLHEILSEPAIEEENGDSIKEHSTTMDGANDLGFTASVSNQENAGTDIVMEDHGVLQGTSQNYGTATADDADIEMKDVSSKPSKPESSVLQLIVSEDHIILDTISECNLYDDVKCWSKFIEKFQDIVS


What was measured:
Assay in all cases: cross-linking; BS3 (unlabeled, or 50:50 with 2H12-labeled BS3) on the purified native holoenzyme; 150 mM NaPO4, 150 mM KOAc, pH 7.5, 5% glycerol, 2 mM DTT; procedure A 2.7 mM reagent 120 min on ice; trypsin digest, LC-MS/MS, Protein Prospector
Conditions in all cases: both partners purified
[1] = biological target: T1, Med5 (Nut1), Mediator Tail module …
[2] = biological target: T2, Med14 (Rgr1), Mediator subunit
[3] = biological target: T3, Med1, Mediator Middle module subunit

Row | Binder | binding result [1] | binding result [2] | binding result [3]
1 | Med15 (Gal11), Mediator Tail module subunit (natural protein, S. cerevisiae, UniProt P19659 1-1081, looked up, Med15 (Gal11), S. cerevisiae, endogenous; source: endogenous, S. cerevisiae CB010 double-tagged strain; within the purified native holoenzyme) MSAAPVQDKDTLSNAERAKNVNGLLQVLMDINTLNGGSSDTADKIRIHAKNFEAALFAKSSSKKEYMDSMNEKVAVMRNTYNTRKNAVTAAAANNNIKPVEQHHINNLKNSGNSANNMNVNMNLNPQMFLNQQAQARQQVAQQLRNQQQQQQQQQQQQRRQLTPQQQQLVNQMKVAPIPKQLLQRIPNIPPNINTWQQVTALAQQKLLTPQDMEAAKEVYKIHQQLLFKARLQQQQAQAQAQANNNNNGLPQNGNINNNINIPQQQQMQPPNSSANNNPLQQQSSQNTVPNVLNQINQIFSPEEQRSLLQEAIETCKNFEKTQLGSTMTEPVKQSFIRKYINQKALRKIQALRDVKNNNNANNNGSNLQRAQNVPMNIIQQQQQQNTNNNDTIATSATPNAAAFSQQQNASSKLYQMQQQQQAQAQAQAQAQAQAQAQAQAQAAQAAQAQAQAQAQAQAQAQAQAQAQAQAQAQAQAQAQAHAQHQPSQQPQQAQQQPNPLHGLTPTAKDVEVIKQLSLDASKTNLRLTDVTNSLSNEEKEKIKMKLKQGQKLFVQVSNFAPQVYIITKNENFLKEVFQLRIFVKEILEKCAEGIFVVKLDTVDRLIIKYQKYWESMRIQILRRQAILRQQQQMANNNGNPGTTSTGNNNNIATQQNMQQSLQQMQHLQQLKMQQQQQQQQQQQQQQQQQQQQQQQHIYPSSTPGVANYSAMANAPGNNIPYMNHKNTSSMDFLNSMENTPKVPVSAAATPSLNKTINGKVNGRTKSNTIPVTSIPSTNKKLSISNAASQQPTPRSASNTAKSTPNTNPSPLKTQTKNGTPNPNNMKTVQSPMGAQPSYNSAIIENAFRKEELLLKDLEIRKLEISSRFKHRQEIFKDSPMDLFMSTLGDCLGIKDEEMLTSCTIPKAVVDHINGSGKRKPTKAAQRARDQDSIDISIKDNKLVMKSKFNKSNRSYSIALSNVAAIFKGIGGNFKDLSTLVHSSSPSTSSNMDVGNPRKRKASVLEISPQDSIASVLSPDSNIMSDSKKIKVDSPDDPFMTKSGATTSEKQEVTNEAPFLTSGTSSEQFNVWDWNNWTSAT | binds | binds | 
2 | Med4, Mediator Middle module subunit (natural protein, S. cerevisiae, UniProt Q12343 1-284, looked up, Med4, S. cerevisiae, endogenous; source: endogenous, S. cerevisiae CB010 double-tagged strain; within the purified native holoenzyme) MSVQDTKAVEFSMGHIRSSSVSLVAEATSNTNSEDKLSKVQLYEDLCRYEDTLSKLVESVDRFKPNLDIAKDLIRTDEALFENVKLLAEYDNIYRNLQKIDKDSEELDSKTRKILEILNECHDELKALPMLEQVEFEKNTILQQRSKINSTELLDYATKLSKFTKIPPTFDKGAVGPNNFIWPAEDALRRGMLAMASLHSKELTRIPGEEVEETEVPTVPPSQSEEQKGQMAKKEGTPKTDSFIFDGTAKEVGDEADNTKDKEKEENNDDALDLDLDLFDPDDF |  | binds | binds
3 | Med10 (Nut2), Mediator Middle module subunit (natural protein, S. cerevisiae, UniProt Q06213 1-157, looked up, Med10 (Nut2), S. cerevisiae, endogenous; source: endogenous, S. cerevisiae CB010 double-tagged strain; within the purified native holoenzyme) MNGNSTNNEQLQQELATTQDQVASIIESFVELGVSIYDFPGTPEATKGMITNLQRNVDRLYKLNVRSNDPQSSLSKVDIPLEVVQYIEDGRNPDIYTREFVEAIRRSNQYQRGKMHGLKQLRDSLADKIVDEFPELKEPVEDIIKRTSPIDNVSNTH |  | binds | 
4 | Med17 (Srb4), Mediator Head module subunit (natural protein, S. cerevisiae, UniProt P32569 1-687, looked up, Med17 (Srb4), S. cerevisiae, endogenous, residues 1-687 spoken of; cross-linking was done after cleavage; also called Med17p; source: endogenous, S. cerevisiae CB010 double-tagged strain; within the purified native holoenzyme; not shown: TAP, N-terminal, cleaved) MTTEDPDSNHLSSETGIKLALDPNLITLALSSNPNSSLHSPTSDEPVPESAGKADTSIRLEGDELENKTKKDNDKNLKFLKNKDSLVSNPHEIYGSMPLEQLIPIILRQRGPGFKFVDLNEKELQNEIKQLGSDSSDGHNSEKKDTDGADENVQIGEDFMEVDYEDKDNPVDSRNETDHKTNENGETDDNIETVMTQEQFVKRRRDMLEHINLAMNESSLALEFVSLLLSSVKESTGMSSMSPFLRKVVKPSSLNSDKIPYVAPTKKEYIELDILNKGWKLQSLNESKDLLRASFNKLSSILQNEHDYWNKIMQSISNKDVIFKIRDRTSGQKLLAIKYGYEDSGSTYKHDRGIANIRNNIESQNLDLIPHSSSVFKGTDFVHSVKKFLRVRIFTKIESEDDYILSGESVMDRDSESEEAETKDIRKQIQLLKKIIFEKELMYQIKKECALLISYGVSIENENKVIIELPNEKFEIELLSLDDDSIVNHEQDLPKINDKRANLMLVMLRLLLVVIFKKTLRSRISSPHGLINLNVDDDILIIRPILGKVRFANYKLLLKKIIKDYVLDIVPGSSITETEVEREQPQENKNIDDENITKLNKEIRAFDKLLNIPRRELKINLPLTEHKSPNLSLMLESPNYCNALIHIKFSAGTEANAVSFDTTFSDFKEVEDFLHFIVAEYIQQKKV |  | binds | 
5 | Med2, Mediator Tail module subunit (natural protein, S. cerevisiae, UniProt Q12124 1-431, looked up, Med2, S. cerevisiae, endogenous; source: endogenous, S. cerevisiae CB010 double-tagged strain; within the purified native holoenzyme) MVVQNSPVSSVHTANFSERGSNTRTMTYKNKLTVCFDDILKVGAEMMMQQQLKNVQLDSYLVNGFSQSQQKLLKEKVKLFHGILDDLETSLSQSSSYLETLTALGKEKEKEREEAEKKRAEQENMRKVREQEELKKRQELEEASQQQQLQQNSKEKNGLGLNFSTTAPANTTDANGSKENYQELGSLQSSSQTQLENANAANNGAAFSPLTTTRIQSQQAQPSDVMFNDLNSMDISMFSGLDSTGFDSTAFNATVDETKGFDDNDSGNNYNDINISSIENNINNNINSTKNGKDNNNESNKNNNGDEKNKNNNEDNENNNNSSEKNNNNNNNNNNNNDDNGNNNNNNSGNDNNNTTNNDSNNKNNSITTGNDNENIVNNDLPTTVVSNPGDNPPPADNGEEYLTLNDFNDLNIDWSTTGDNGELDLSGFNI |  | binds | 
